T1: MORF (His6-HA epitope-ZZ protein A)-tagged Msn5 (S. cerevisiae, UniProt P52918 1-1224)
T1 construct: Msn5, beta-importin family member (yeast exportin-5 homolog), S. cerevisiae; Tagged protein is functional; also called Msn5-M; exportin-5 homolog; source: S. cerevisiae, endogenous promoter on a yeast episomal (YEp) vector, in cell extract
T1 sequence (looked up): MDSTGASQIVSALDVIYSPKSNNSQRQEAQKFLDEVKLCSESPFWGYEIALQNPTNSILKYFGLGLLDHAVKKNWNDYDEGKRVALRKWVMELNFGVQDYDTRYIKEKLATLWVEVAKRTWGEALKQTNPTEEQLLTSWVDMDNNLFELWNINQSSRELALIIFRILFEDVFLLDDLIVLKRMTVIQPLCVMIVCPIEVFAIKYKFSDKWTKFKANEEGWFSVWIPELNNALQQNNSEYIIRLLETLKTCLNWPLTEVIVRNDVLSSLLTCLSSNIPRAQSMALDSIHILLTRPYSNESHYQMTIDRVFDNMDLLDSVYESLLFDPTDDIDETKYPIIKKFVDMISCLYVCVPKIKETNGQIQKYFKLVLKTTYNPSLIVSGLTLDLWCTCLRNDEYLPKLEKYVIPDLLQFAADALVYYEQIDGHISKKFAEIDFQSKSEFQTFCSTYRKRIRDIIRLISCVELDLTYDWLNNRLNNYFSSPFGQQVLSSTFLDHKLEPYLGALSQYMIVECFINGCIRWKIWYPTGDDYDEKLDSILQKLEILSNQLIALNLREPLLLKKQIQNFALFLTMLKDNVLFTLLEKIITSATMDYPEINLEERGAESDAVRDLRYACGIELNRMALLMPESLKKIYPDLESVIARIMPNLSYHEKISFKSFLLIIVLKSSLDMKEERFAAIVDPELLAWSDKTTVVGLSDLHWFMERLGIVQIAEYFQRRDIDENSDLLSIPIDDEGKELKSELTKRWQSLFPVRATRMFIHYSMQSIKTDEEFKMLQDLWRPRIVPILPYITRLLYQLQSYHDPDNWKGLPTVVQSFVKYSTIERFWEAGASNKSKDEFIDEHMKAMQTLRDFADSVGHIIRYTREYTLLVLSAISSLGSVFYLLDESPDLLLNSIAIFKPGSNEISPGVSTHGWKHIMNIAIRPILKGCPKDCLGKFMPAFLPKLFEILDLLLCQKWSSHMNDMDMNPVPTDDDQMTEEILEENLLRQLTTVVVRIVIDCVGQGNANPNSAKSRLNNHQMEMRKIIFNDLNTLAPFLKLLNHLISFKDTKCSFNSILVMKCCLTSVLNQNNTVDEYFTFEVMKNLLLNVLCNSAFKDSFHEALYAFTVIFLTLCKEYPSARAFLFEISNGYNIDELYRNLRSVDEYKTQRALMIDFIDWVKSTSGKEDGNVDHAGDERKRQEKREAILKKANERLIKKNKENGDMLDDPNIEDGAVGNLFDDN

B1: untagged Tef2 (natural protein, S. cerevisiae (endogenous in yeast), UniProt P02994 1-458, looked up)
chain: MGKEKSHINVVVIGHVDSGKSTTTGHLIYKCGGIDKRTIEKFEKEAAELGKGSFKYAWVLDKLKAERERGITIDIALWKFETPKYQVTVIDAPGHRDFIKNMITGTSQADCAILIIAGGVGEFEAGISKDGQTREHALLAFTLGVRQLIVAVNKMDSVKWDESRFQEIVKETSNFIKKVGYNPKTVPFVPISGWNGDNMIEATTNAPWYKGWEKETKAGVVKGKTLLEAIDAIEQPSRPTDKPLRLPLQDVYKIGGIGTVPVGRVETGVIKPGMVVTFAPAGVTTEVKSVEMHHEQLEQGVPGDNVGFNVKNVSVKEIRRGNVCGDAKNDPPKGCASFNATVIVLNHPGQISAGYSPVLDCHTAHIACRFDELLEKNDRRSGKKLEDHPKFLKSGDAALVKFVPSKPMCVEAFSEYPPLGRFAVRDMRQTVAVGVIKSVDKTEKAAKVTKAAQKAAKK
notes: Tef2, yeast translation elongation factor 1 alpha (eEF1A), product of TEF2; Detected with anti-eEF1A; comigrates with Tef1-Myc; also called Tef1/2; eEF1A; source: endogenous, S. cerevisiae cell extract
B2: endogenously 3Myc-tagged Tef1 (natural protein, S. cerevisiae, UniProt P02994 1-458, looked up)
chain: B1 chain
notes: Tef1, yeast translation elongation factor 1 alpha (eEF1A), product of TEF1; Detected with anti-eEF1A and anti-Myc; comigrates with untagged Tef2, so the anti-eEF1A signal called Tef1/2 is of both; also called Tef1-Myc; Tef1/2; source: endogenously tagged, S. cerevisiae cell extract

Key:
[1] = target: T1, MORF (His6-HA epitope-ZZ protein …); experiment: co-IP; cells with locked RanGTP, formaldehyde cross-linked; extract treated with RNase A prior to purification of the beta-importin on IgG beads; Western blot with anti-eEF1A; settings: partners not purified
[2] = target: T1, MORF (His6-HA epitope-ZZ protein …); experiment: co-IP; cells with RanGTP-locked mutant, without cross-linking; complex immunoprecipitated on beads first and then treated with RNase A (condition R*); Western blot with anti-eEF1A; settings: partners not purified

| Binder | percent of copurified Tef1/2 relative to mock treatment [1] | percent of copurified Tef1/2 relative to mock treatment [2] |
| --- | --- | --- |
| B1 | ~90% | ~40% |
| B2 | ~90% | ~40% |
